Data published in PMC8629194.

Target: wt ACE2_(740)-Fc (M31) (human) (UniProt Q9BYF1)
Assay: SPR

Chain of wt ACE2_(740)-Fc (M31) (human) (Q9BYF1 18-740): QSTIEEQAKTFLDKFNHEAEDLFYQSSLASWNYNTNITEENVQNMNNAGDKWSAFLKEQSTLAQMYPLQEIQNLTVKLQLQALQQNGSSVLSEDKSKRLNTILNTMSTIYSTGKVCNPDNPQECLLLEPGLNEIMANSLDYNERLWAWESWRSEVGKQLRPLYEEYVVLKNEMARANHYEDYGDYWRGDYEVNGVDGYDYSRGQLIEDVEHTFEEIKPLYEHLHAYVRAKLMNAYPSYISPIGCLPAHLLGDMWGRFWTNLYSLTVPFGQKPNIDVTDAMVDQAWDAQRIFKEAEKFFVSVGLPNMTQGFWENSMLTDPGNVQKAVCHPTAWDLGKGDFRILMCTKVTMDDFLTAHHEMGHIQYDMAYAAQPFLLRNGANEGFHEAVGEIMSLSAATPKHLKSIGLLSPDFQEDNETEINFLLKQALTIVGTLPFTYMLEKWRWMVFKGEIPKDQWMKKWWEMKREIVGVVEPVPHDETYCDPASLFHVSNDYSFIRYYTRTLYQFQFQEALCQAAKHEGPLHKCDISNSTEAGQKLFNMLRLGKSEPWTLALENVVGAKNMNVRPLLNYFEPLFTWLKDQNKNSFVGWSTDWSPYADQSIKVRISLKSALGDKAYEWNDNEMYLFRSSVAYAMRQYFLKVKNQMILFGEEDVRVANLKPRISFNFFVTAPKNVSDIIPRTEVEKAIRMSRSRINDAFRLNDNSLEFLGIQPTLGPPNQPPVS

In the case of “SARS-CoV-2 RBDwt (residue 319–541) (from UniProt P0DTC2 319-541) (domain or fragment; other documents disagree on this pair)”, the Kd is reported as 13.9 nM.
